Laboratory results reported in patent publication US20140249045A1 (MEDICINAL BIOCONVERGENCE RESEARCH CENTER, published 2014).
Blank lines part the entries; values can stand above or below the binder they belong to.

B4: HA-tagged RagD (enzyme, UniProt Q9NQL2 1-400, looked up)
chain: MSQVLGKPQPQDEDDAEEEEEEDELVGLADYGDGPDSSDADPDSGTEEGVLDFSDPFSTEVKPRILLMGLRRSGKSSIQKVVFHKMSPNETLFLESTNKICREDVSNSSFVNFQIWDFPGQIDFFDPTFDYEMIFRGTGALIFVIDSQDDYMEALARLHLTVTRAYKVNTDINFEVFIHKVDGLSDDHKIETQRDIHQRANDDLADAGLEKIHLSFYLTSIYDHSIFEAFSKVVQKLIPQLPTLENLLNIFISNSGIEKAFLFDVVSKIYIATDSTPVDMQTYELCCDMIDVVIDISCIYGLKEDGAGTPYDKESTAIIKLNNTTVLYLKEVTKFLALVCFVREESFERKGLIDYNFHCFRKAIHEVFEVRMKVVKSRKVQNRLQKKKRATPNGTPRVLL
notes: Expressed in 293T cells, used as cell lysate; also called HA-RagD; not shown: HA tag

Key:
[1] = biological target: B4; test: in vitro GST pull-down of HA-RagD lysate, anti-HA blot (FIG. 3h)
Method: Binding assay was conducted in 25 mM Tris-HCl buffer (pH7.4) containing 10 mM NaCl, 1 mM MgCl₂, 1 mM EDTA, 0.5 mM EGTA, and 0.5% Triton X-100.

[2] = biological target: T1, endogenous LRS of 293T cells (Homo sapiens (Human), UniProt Q9P2J5 1-1176); test: immunoprecipitation of 293T lysates with anti-Raptor antibody, anti-LRS and anti-RagD blots (FIG. 4a)
T1 construct: Endogenous protein in HEK293T cell lysates, detected with anti-LRS antibody
Method: 293T cells were starved for amino acids for 1 hour and re-stimulated with amino acids for 5 min.

[3] = biological target: T2, His-LRS-(1-1176) (Homo sapiens (Human), UniProt Q9P2J5 1-1176); test: ELISA: plate coated with LRS-(1-1176) (500 ng/ml), GST-RagD detected with anti-GST antibody (FIG. 13a)
T2 construct: Expressed in E. coli BL21(DE3), purified on Ni-chelating agarose, coated on the ELISA plate; not shown: His tag from pET16a vector

[4] = biological target: T3, His-LRS-(759-1176) (Homo sapiens (Human), UniProt Q9P2J5 759-1176); test: ELISA competition: His-LRS-(759-1176) added to GST-RagD on plate-coated His-LRS-(1-1176) (FIG. 13b)
T3 construct: not shown: His tag from pET16a vector
T3 sequence: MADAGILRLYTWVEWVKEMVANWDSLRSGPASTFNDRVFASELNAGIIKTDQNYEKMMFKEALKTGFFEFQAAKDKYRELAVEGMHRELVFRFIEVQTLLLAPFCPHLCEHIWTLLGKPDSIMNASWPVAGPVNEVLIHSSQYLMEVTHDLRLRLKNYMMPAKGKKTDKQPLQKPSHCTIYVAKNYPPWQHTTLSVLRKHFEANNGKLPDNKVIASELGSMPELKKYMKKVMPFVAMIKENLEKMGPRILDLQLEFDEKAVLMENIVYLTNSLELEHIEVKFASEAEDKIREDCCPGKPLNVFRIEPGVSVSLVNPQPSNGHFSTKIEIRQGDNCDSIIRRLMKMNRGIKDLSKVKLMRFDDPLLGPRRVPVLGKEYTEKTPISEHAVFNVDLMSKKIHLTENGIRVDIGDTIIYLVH

[5] = biological target: T4, myc-tagged isoleucyl-tRNA synthetase (IRS) (UniProt P41252 1-1262); test: co-immunoprecipitation with anti-HA antibody, anti-myc blot (FIG. 3c)
T4 construct: also called myc-tagged IRS; not shown: myc tag
T4 sequence (looked up): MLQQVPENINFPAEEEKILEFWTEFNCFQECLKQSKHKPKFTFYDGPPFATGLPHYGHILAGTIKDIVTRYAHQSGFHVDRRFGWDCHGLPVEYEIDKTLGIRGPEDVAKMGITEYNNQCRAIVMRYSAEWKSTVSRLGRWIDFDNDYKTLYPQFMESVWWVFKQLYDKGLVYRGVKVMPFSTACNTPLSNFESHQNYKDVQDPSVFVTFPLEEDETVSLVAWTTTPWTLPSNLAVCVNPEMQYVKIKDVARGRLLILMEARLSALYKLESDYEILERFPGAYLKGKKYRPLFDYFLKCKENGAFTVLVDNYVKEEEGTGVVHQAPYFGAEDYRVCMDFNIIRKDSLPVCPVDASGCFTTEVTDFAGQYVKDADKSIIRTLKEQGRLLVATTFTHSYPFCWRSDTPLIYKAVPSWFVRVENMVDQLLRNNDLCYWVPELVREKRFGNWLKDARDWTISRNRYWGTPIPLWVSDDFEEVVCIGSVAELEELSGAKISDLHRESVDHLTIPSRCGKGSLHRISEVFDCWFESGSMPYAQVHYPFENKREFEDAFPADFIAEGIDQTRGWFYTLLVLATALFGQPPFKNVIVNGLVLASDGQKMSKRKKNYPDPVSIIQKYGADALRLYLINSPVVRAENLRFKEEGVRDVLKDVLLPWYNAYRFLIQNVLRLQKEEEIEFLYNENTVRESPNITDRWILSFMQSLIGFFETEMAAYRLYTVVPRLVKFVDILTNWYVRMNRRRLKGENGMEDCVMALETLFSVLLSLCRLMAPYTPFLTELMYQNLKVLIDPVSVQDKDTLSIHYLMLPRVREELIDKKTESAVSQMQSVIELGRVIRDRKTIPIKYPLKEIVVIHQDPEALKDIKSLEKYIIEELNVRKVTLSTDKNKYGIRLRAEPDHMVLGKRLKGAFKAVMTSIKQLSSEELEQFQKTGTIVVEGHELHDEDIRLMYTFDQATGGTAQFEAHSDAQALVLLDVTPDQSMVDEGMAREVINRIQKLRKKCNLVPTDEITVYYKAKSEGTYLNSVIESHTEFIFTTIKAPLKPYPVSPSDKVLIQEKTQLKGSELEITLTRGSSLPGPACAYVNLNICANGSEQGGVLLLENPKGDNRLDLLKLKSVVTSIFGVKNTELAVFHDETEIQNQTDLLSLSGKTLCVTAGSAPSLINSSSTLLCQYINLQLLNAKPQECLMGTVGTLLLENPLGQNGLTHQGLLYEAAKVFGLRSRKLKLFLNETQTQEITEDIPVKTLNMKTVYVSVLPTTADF
Method: (§1) The co-precipitated myc-tagged protein was determined by immunoblotting with anti-myc antibodies.

[6] = biological target: T5, myc-tagged methionyl-tRNA synthetase (MRS) (UniProt P56192 1-900); test: as above
T5 construct: also called myc-tagged MRS; not shown: myc tag
T5 sequence (looked up): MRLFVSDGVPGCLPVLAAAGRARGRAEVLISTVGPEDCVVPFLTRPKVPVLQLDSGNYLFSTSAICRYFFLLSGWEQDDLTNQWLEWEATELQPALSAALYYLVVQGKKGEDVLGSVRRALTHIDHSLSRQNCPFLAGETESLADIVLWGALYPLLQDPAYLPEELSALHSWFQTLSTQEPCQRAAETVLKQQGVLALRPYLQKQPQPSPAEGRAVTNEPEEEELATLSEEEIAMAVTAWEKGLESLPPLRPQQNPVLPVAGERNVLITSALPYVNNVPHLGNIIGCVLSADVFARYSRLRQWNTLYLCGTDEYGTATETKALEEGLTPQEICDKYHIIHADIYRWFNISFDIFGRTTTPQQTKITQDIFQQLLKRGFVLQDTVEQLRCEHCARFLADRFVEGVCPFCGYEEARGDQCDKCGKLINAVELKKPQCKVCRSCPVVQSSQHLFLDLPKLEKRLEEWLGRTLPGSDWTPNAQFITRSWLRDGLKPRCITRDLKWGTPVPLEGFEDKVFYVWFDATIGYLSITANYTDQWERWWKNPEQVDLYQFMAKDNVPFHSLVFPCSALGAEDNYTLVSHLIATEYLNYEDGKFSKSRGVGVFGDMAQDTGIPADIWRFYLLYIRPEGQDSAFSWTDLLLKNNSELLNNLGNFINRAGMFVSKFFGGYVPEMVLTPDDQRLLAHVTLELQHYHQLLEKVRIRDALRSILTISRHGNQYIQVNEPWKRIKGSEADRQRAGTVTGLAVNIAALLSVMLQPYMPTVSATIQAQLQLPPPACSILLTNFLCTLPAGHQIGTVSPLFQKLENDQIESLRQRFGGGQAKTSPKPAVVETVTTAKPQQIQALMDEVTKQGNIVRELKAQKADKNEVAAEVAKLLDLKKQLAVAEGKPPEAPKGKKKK
Method: as §1

[7] = biological target: T6, myc-tagged glutamyl-prolyl-tRNA synthetase (EPRS) (UniProt P07814 1-1512); test: as above
T6 construct: also called myc-tagged EPRS; not shown: myc tag
T6 sequence (P07814 whole entry): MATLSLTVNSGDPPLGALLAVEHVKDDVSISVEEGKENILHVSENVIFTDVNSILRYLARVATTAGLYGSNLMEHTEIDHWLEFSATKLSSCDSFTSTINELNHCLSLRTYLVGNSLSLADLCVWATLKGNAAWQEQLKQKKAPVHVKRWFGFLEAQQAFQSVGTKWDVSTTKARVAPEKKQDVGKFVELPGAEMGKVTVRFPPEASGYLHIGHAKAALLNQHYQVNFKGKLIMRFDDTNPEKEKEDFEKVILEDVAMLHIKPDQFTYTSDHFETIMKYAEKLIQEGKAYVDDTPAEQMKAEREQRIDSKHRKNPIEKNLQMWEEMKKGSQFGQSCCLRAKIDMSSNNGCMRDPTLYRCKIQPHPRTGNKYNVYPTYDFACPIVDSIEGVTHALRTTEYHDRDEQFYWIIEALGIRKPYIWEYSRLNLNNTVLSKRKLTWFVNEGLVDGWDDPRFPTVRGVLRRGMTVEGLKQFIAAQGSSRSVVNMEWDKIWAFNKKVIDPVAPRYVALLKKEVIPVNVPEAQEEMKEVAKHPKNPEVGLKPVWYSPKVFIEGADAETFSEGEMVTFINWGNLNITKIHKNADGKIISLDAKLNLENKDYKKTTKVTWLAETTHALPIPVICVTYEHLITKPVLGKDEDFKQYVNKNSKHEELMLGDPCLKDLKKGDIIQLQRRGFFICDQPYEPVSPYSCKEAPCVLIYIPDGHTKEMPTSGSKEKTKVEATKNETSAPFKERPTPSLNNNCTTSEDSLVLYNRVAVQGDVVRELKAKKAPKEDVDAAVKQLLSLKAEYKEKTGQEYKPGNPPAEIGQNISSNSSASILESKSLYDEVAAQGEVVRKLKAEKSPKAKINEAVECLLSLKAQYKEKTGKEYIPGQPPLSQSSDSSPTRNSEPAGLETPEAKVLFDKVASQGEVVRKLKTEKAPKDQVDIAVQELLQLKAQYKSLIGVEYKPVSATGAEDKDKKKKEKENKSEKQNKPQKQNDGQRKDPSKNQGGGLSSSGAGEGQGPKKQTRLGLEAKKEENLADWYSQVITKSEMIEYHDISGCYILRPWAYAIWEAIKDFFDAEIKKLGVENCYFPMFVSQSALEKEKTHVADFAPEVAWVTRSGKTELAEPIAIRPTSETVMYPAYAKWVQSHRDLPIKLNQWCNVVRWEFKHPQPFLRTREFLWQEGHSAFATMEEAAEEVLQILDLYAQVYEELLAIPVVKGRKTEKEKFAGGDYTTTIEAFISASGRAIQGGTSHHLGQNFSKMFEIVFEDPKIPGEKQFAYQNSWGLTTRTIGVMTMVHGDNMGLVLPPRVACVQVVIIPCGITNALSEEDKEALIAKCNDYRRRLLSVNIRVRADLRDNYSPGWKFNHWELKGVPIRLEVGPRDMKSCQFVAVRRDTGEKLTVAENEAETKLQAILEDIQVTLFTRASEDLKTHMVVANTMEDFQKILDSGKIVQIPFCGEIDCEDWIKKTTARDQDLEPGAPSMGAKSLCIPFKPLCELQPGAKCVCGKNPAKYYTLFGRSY
Method: as §1

- binding result [1]: no binding
B1: GST-LRS fragment 971-1176 (enzyme)
chain: VIASELGSMPELKKYMKKVMPFVAMIKENLEKMGPRILDLQLEFDEKAVLMENIVYLTNSLELEHIEVKFASEAEDKIREDCCPGKPLNVFRIEPGVSVSLVNPQPSNGHFSTKIEIRQGDNCDSIIRRLMKMNRGIKDLSKVKLMRFDDPLLGPRRVPVLGKEYTEKTPISEHAVFNVDLMSKKIHLTENGIRVDIGDTIIYLVH
notes: not shown: glutathione S-transferase (GST) fusion tag

- binding result [2]: binds
B2: endogenous RagD of 293T cells (enzyme, UniProt Q9NQL2 1-400, looked up)
chain: MSQVLGKPQPQDEDDAEEEEEEDELVGLADYGDGPDSSDADPDSGTEEGVLDFSDPFSTEVKPRILLMGLRRSGKSSIQKVVFHKMSPNETLFLESTNKICREDVSNSSFVNFQIWDFPGQIDFFDPTFDYEMIFRGTGALIFVIDSQDDYMEALARLHLTVTRAYKVNTDINFEVFIHKVDGLSDDHKIETQRDIHQRANDDLADAGLEKIHLSFYLTSIYDHSIFEAFSKVVQKLIPQLPTLENLLNIFISNSGIEKAFLFDVVSKIYIATDSTPVDMQTYELCCDMIDVVIDISCIYGLKEDGAGTPYDKESTAIIKLNNTTVLYLKEVTKFLALVCFVREESFERKGLIDYNFHCFRKAIHEVFEVRMKVVKSRKVQNRLQKKKRATPNGTPRVLL
notes: Endogenous protein in 293T cell lysates, detected with anti-RagD antibody

- binding result [3]: binds
- binding result [4]: binds
B3: GST-RagD (RagD-(1-400)) (enzyme, UniProt Q9NQL2 1-400, looked up)
chain: MSQVLGKPQPQDEDDAEEEEEEDELVGLADYGDGPDSSDADPDSGTEEGVLDFSDPFSTEVKPRILLMGLRRSGKSSIQKVVFHKMSPNETLFLESTNKICREDVSNSSFVNFQIWDFPGQIDFFDPTFDYEMIFRGTGALIFVIDSQDDYMEALARLHLTVTRAYKVNTDINFEVFIHKVDGLSDDHKIETQRDIHQRANDDLADAGLEKIHLSFYLTSIYDHSIFEAFSKVVQKLIPQLPTLENLLNIFISNSGIEKAFLFDVVSKIYIATDSTPVDMQTYELCCDMIDVVIDISCIYGLKEDGAGTPYDKESTAIIKLNNTTVLYLKEVTKFLALVCFVREESFERKGLIDYNFHCFRKAIHEVFEVRMKVVKSRKVQNRLQKKKRATPNGTPRVLL
notes: range 1-400; Expressed in E. coli BL21, purified on GSH agarose; also called peptide spanning aa 1-400 of RagD; RagD protein; not shown: glutathione S-transferase (GST) tag from pGEX4T3 vector (GE healthcare)

Binder: B4
- binding result [5]: no binding
- binding result [6]: no binding
- binding result [7]: no binding
